Measured values from the Immune Epitope Database (IEDB).

Key:
HLA-A*31:01 [1] = test: IEDB peptide-MHC binding, purified MHC/competitive/fluorescence; filed as Kd, often an IC50 or EC50 that approximates it; ≥ and ≤ were set here for values at or beyond the usual limits of such assays; conditions: source organism: Zaire ebolavirus
HLA-B*51:01 = test: as above
HLA-B*15:17 = test: as above; conditions: source organism: Zaire ebolavirus
HLA-B*46:01 [2] = test: as above
HLA-B*15:01 = test: as above
HLA-B*18:01 [3] = test: as above
HLA-A*02:01 = test: as above
HLA-A*69:01 [4] = test: as above; conditions: source organism: Zaire ebolavirus
HLA-B*57:01 [5] = test: as above
HLA-B*39:01 = test: as above; conditions: source organism: Zaire ebolavirus
HLA-A*26:01 = test: as above
HLA-B*27:03 = test: as above
HLA-A*23:01 = test: IEDB peptide-MHC binding, purified MHC/direct/fluorescence; filed as Kd, often an IC50 or EC50 that approximates it; ≥ and ≤ were set here for values at or beyond the usual limits of such assays; conditions: source organism: Zaire ebolavirus
HLA-A*29:02 [6] = test: as above
HLA-A*02:12 = test: as above; conditions: source organism: Zaire ebolavirus
HLA-A*03:01 [7] = test: as above
HLA-A*02:19 [8] = test: as above; conditions: source organism: Zaire ebolavirus
HLA-A*24:03 = test: as above; conditions: source organism: Zaire ebolavirus
HLA-A*29:02 [9] = test: IEDB peptide-MHC binding, purified MHC/competitive/fluorescence; filed as Kd, often an IC50 or EC50 that approximates it; ≥ and ≤ were set here for values at or beyond the usual limits of such assays
HLA-A*03:01 [10] = test: as above
HLA-A*02:19 [11] = test: as above
HLA-A*02:17 = test: IEDB peptide-MHC binding, purified MHC/competitive/radioactivity; filed as Kd, often an IC50 or EC50 that approximates it; ≥ and ≤ were set here for values at or beyond the usual limits of such assays; conditions: source organism: Dengue virus 3 China/80-2/1980
HLA-B*27:05 = test: IEDB peptide-MHC binding, purified MHC/direct/fluorescence; filed as Kd, often an IC50 or EC50 that approximates it; ≥ and ≤ were set here for values at or beyond the usual limits of such assays; conditions: source organism: Mammarenavirus juninense
HLA-B*08:01 = test: as above; conditions: source organism: Mammarenavirus juninense
HLA-A*31:01 [12] = test: as above; conditions: source organism: Mammarenavirus juninense
HLA-B*48:01 = test: as above; conditions: source organism: Mammarenavirus juninense
HLA-A*01:01 = test: as above; conditions: source organism: Mammarenavirus juninense
HLA-B*46:01 [13] = test: as above; conditions: source organism: Mammarenavirus juninense
HLA-B*18:01 [14] = test: as above; conditions: source organism: Mammarenavirus juninense
HLA-B*58:01 = test: as above; conditions: source organism: Mammarenavirus juninense
HLA-A*69:01 [15] = test: as above; conditions: source organism: Mammarenavirus juninense
HLA-B*57:01 [16] = test: as above; conditions: source organism: Mammarenavirus juninense
HLA-B*44:02 = test: as above; conditions: source organism: Mammarenavirus juninense
HLA-A*11:01 = test: as above; conditions: source organism: Mammarenavirus juninense
[17] = source organism: Zaire ebolavirus
[18] = source organism: Mycobacterium tuberculosis variant bovis BCG str. Pasteur 1173P2
[19] = source organism: Campylobacter jejuni subsp. jejuni NCTC 11168 = ATCC 700819
[20] = source organism: Mammarenavirus juninense

TSACGIFLK was tested, and the Kd (HLA-A*31:01 [1]) was ≥ 20 µM, the Kd (HLA-B*51:01; [17]) was ≥ 20 µM and the Kd (HLA-B*15:17) was ≥ 20 µM. For the same sequence, the Kd (HLA-B*46:01 [2]; [17]) was ≥ 20 µM, the Kd (HLA-B*15:01; [17]) was ≥ 20 µM and the Kd (HLA-B*18:01 [3]; [17]) was ≥ 20 µM. For the same sequence, the Kd (HLA-A*02:01; [17]) was ≥ 20 µM, the Kd (HLA-A*69:01 [4]) was ≥ 20 µM and the Kd (HLA-B*57:01 [5]; [17]) was ≥ 20 µM. For the same sequence, the Kd (HLA-B*39:01) was ≥ 20 µM, the Kd (HLA-A*26:01; [17]) was ≥ 20 µM and the Kd (HLA-B*27:03; [17]) was ≥ 20 µM. For the same sequence, the Kd (HLA-A*23:01) was ≥ 20 µM, the Kd (HLA-A*29:02 [6]; [17]) was ≥ 20 µM and the Kd (HLA-A*02:12) was ≥ 20 µM. The Kd (HLA-A*03:01 [7]; source organism: Sudan ebolavirus - Maleo (1979)) was 1.1 µM, the Kd (HLA-A*02:19 [8]) was ≥ 20 µM and the Kd (HLA-A*24:03) was ≥ 20 µM.
Work on LLYYWVHLF yielded a Kd (HLA-A*29:02 [9]; source organism: Bacillus thuringiensis str. Al Hakam) of 0.022 µM.
With HLTRVGPYL the Kd (HLA-B*51:01; [18]) was ≥ 20 µM, the Kd (HLA-A*29:02 [9]; [18]) was ≥ 20 µM and the Kd (HLA-A*03:01 [10]; [18]) was ≥ 20 µM. For the same sequence, the Kd (HLA-B*46:01 [2]; [18]) was ≥ 20 µM, the Kd (HLA-B*15:01; [18]) was ≥ 20 µM and the Kd (HLA-B*18:01 [3]; [18]) was ≥ 20 µM. For the same sequence, the Kd (HLA-A*02:19 [11]; [18]) was 1.03 µM, the Kd (HLA-A*02:01; [18]) was 0.0024 µM and the Kd (HLA-B*57:01 [5]; [18]) was ≥ 20 µM. For the same sequence, the Kd (HLA-A*26:01; [18]) was ≥ 20 µM and the Kd (HLA-B*27:03; [18]) was ≥ 20 µM.
With YLALIATFKI the Kd (HLA-A*02:17) was 0.885 µM.
For AVGFFPTGV, the Kd (HLA-B*51:01; [19]) was ≥ 20 µM, the Kd (HLA-A*29:02 [9]; [19]) was 0.351 µM and the Kd (HLA-A*03:01 [10]; [19]) was ≥ 20 µM. For the same sequence, the Kd (HLA-B*46:01 [2]; [19]) was ≥ 20 µM, the Kd (HLA-B*15:01; [19]) was ≥ 20 µM and the Kd (HLA-B*18:01 [3]; [19]) was ≥ 20 µM. For the same sequence, the Kd (HLA-A*02:19 [11]; [19]) was 0.103 µM, the Kd (HLA-A*02:01; [19]) was 0.0022 µM and the Kd (HLA-B*57:01 [5]; [19]) was ≥ 20 µM. The Kd (HLA-A*26:01; [19]) was ≥ 20 µM and the Kd (HLA-B*27:03; [19]) was ≥ 20 µM.
Sequence FESTITGEY has a Kd (HLA-A*29:02 [9]; source organism: Vibrio cholerae 2740-80) of 0.0075 µM.
With QLAKRSEIL the Kd (HLA-B*27:05) was ≥ 20 µM, the Kd (HLA-B*08:01) was 1.3 µM and the Kd (HLA-A*31:01 [12]) was ≥ 20 µM. For the same sequence, the Kd (HLA-B*48:01) was ≥ 20 µM, the Kd (HLA-A*29:02 [6]; [20]) was ≥ 20 µM and the Kd (HLA-A*03:01 [7]; [20]) was ≥ 20 µM. The Kd (HLA-A*01:01) was ≥ 20 µM, the Kd (HLA-B*46:01 [13]) was ≥ 20 µM and the Kd (HLA-B*18:01 [14]) was ≥ 20 µM. The Kd (HLA-B*58:01) was ≥ 20 µM, the Kd (HLA-A*69:01 [15]) was ≥ 20 µM and the Kd (HLA-B*57:01 [16]) was ≥ 20 µM. The Kd (HLA-B*44:02) was ≥ 20 µM and the Kd (HLA-A*11:01) was ≥ 20 µM.
